Experimental data reported in patent publication US20140135474A1 (PROTELICA, published 2014).

How the values were obtained:
[1] = target: T1, VEGF (UniProt P15692-9 27-147, limits assumed); test: phage ELISA
T1 construct: Only the selection names the 121 isoform; also called VEGF(121)
T1 sequence (looked up): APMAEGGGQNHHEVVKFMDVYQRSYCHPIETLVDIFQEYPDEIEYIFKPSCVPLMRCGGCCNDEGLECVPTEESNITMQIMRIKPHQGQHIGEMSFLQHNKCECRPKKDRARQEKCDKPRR

[2] = target: T2, TNF-α (UniProt P01375 77-233, biotinylated); test: phage display selection and ELISA
T2 construct: also called TNF-alpha; biotintylated TNF-α soluble protein

[3] = target: T1, VEGF; test: phage ELISA; wells with TNF, control or VEGF
Description: (§1) After the third and fourth rounds of selection, a total of 373 clones were analyzed for TNF-α binding using phage ELISA. Briefly, phage from individual clones was produced by co-infection with M13K07 helper phage in 1 ml cultures in 96-deep well blocks. Phage-containing culture supernatants were then added to microtiter plates coated with the target protein. Following washes with PBS-0.1% Tween-20, bound phage was detected with a mouse anti-M13 antibody horseradish peroxidase conjugate (GE Biosciences) and TMB substrate (Pierce). Positive variants were then screened for binding specificity against VEG-F and nuetravidin plate only.

[4] = target: T2, TNF-α; test: phage ELISA; wells with TNF, control or VEGF
Description: as §1

[5] = target: T2, TNF-α; test: Octet BLI, biotinylated TNF-α on streptavidin tips; lower end of the range
Description: (§2) The target protein was biotintylated TNF-α soluble protein (R&D Systems) and is at a concentration of 0.25 ug/ml for loading onto the streptavidin sensor tips. […] The Octet was run using the manufacturers protocol for Basic Kinetic Assay.

[6] = target: T1, VEGF; test: ELISA with purified soluble 14FN3 variant, OD450, one concentration (not given)
[7] = target: T2, TNF-α; test: Octet BLI, biotinylated TNF-α on streptavidin tips; upper end of the range
Description: as §2

[8] = target: T2, TNF-α; test: Octet BLI, biotinylated TNF-α on streptavidin tips
Description: as §2

[9] = target: T3, HMGB1 (UniProt P09429 1-215, limits assumed); test: Octet BLI
T3 construct: also called biotinylated HMGB1
T3 sequence (looked up): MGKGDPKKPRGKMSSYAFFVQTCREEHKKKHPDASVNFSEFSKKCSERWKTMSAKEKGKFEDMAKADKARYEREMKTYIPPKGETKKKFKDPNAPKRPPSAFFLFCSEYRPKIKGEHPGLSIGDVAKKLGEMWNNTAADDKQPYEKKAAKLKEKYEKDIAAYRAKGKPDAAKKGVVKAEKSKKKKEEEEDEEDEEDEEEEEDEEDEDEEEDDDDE

[10] = target: T2, TNF-α; test: ELISA (OD450); wells with HMGB1, TNF or blank
[11] = target: T3, HMGB1; test: competition ELISA: biotinylated HMGB1 pre-incubated with R2F8, then bound to immobilized RAGE (blocked ligand-receptor pair HMGB1/RAGE), detected with streptavidin-HRP and TMB
[12] = target: T2, TNF-α; test: phage ELISA (OD450); wells with VEGF, TNF alfa or 2%MPBS only
[13] = target: T1, VEGF; test: Octet BLI, soluble protein

T2 sequence (P01375 77-233 limits assumed): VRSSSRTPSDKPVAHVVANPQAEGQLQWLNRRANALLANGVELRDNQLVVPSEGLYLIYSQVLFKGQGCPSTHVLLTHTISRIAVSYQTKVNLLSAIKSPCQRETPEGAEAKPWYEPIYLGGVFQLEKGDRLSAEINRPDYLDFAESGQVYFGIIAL

B1: TNF-α binder R3A10 (designed binder)
chain: NVSPPRRARVTDATETTITISWYPYYYYCGYHYSYFQVDAVPANGQTPIQRTIYGYYTYYTITGLQPGTDYKIYLYTLNSSDYCYYSYYPVVIDAST
- binding result [1]: no binding
- binding result [2]: binds

B2: TNF-α binder R4F7 (designed binder)
chain: NVSPPRRARVTDATETTITISWYPYEYDDCYYYIYYFQVDAVPANGQTPIQRTIPDYESYYTITGLQPGTDYKIYLYTLNSYGFCPPSYKPVVIDAST
- binding result [3]: no binding
- binding result [4]: binds

B3: TNF-α binder R41A6 (designed binder)
chain: NVSPPRRARVTDATETTITISWEHSEDDCYSYIYYFQVDAVPANGQTPIQRTISGYETYYTITGLQPGTDYKIYLYTLNSAGFCPPYSKPVVIDAST
notes: 14FN3 variant; On phage (p3 fusion) in phage ELISA; soluble with 6xHis tag (phagemid also c-myc tag; pET-20b C-terminal hexahistidine) in ELISA and Octet
- Kd [5]: ≥ 20 nM
- binding result [6]: no binding
- Kd [7]: ≤ 100 nM

B4: A6+Fc (Fc fusion)
chain: NVSPPRRARVTDATETTITISWEHSEDDCYSYIYYFQVDAVPANGQTPIQRTISGYETYYTITGLQPGTDYKIYLYTLNSAGFCPPYSKPVVIDAST
notes: Expressed in E. coli BL-21(DE3); also called R41A6 Fc fusion protein; pET-20b+TNF A6+Fc #39; not shown: C-terminal hexahistidine tag of pET-20b
- Kd [8]: 12 to 25 nM
- fold improvement of Koff against monomeric A6 [8]: 2 fold

B5: TNF-α binder R4G4 (designed binder)
chain: NVSPPRRARVTDATETTITISWEPSEYDCYYSIYYFQVDAVPANGQTPIQRTIHDSYNYYTITGLQPGTDYKIYLYTLNSAGFCPPYSKPVVIDAST
- binding result [3]: no binding
- binding result [4]: binds

B6: TNF-α binder R4A8 (designed binder)
chain: NVSPPRRARVTDATETTITISWYPSEDYCGSSIYGFQVDAVPANGQTPIQRTIHGNETSYTITGLQPGTDYKIYLYTLNSAGFCPPYSKPVVIDAST
- binding result [3]: no binding
- binding result [4]: binds

B7: TNF-α binder R42C10 (designed binder)
chain: NVSPPRRARVTDATETTITISWYHHEDDCYYHFYYFQVDAVPANGQTPIQRTILHGTYTSYTITGLQPGTDYKIYLYTLNASGFCSHSYKPVVIDAST
notes: 14FN3 variant; on phage in phage ELISA, soluble 6xHis-tagged in ELISA; The short label C10 is tied to R42C10 by its name only
- binding result [6]: no binding

B8: P1E8 anti-HMGB1 (designed binder)
chain: NVSPPRRARVTDATETTITISWRAAESAIARFQVDAVPANGQTPIQRTIKRTKHTYTITGLQPGTDYKIYLYTLNDNARSSPVVIDAST
notes: 14FN3 variant; on phage in phage ELISA, soluble 6xHis-tagged in Octet
- Kd [9]: 192 nM
- koff [9]: 0.000325 s⁻¹
- kon [9]: 1690 M⁻¹ s⁻¹

B9: R2B5 anti-HMGB1 (designed binder)
chain: NVSPPRRARVTDATETTITIRWTVAESKIARFQVDAVPANGQTPIQRTIKRSKHSYTITGLQPGTDYKIYLYTLNDNARSSPVVIDAST
notes: as for B8
- Kd [9]: 65.8 nM
- koff [9]: 0.000287 s⁻¹
- kon [9]: 4350 M⁻¹ s⁻¹

B10: R2G2 anti-HMGB1 (designed binder)
chain: NVSPPRRARVTDATETTITISWRAAESAIARFQVDAVPANGQTPIQRTIKRTKHTYTITGLQPGTDYKIYLYTLNDNARSSPVVIDAST
notes: as for B8
- binding result [10]: no binding
- Kd [9]: 266 nM
- koff [9]: 0.00049 s⁻¹
- kon [9]: 1840 M⁻¹ s⁻¹

B11: R2F8 anti-HMGB1 (designed binder)
chain: NVSPPRRARVTDATETTITIRWARSASEIARFQVDAVPANGQTPIQRTIKRSANIYTITGLQPGTDYKIYLYTLNDNARSSPVVIDAST
notes: 14FN3 variant; also called R2F8 HMGB1 FN3
- IC50 (read off the curve) [11]: ~8 µg/mL
- Kd [9]: 35.3 nM
- koff [9]: 0.000267 s⁻¹
- kon [9]: 7580 M⁻¹ s⁻¹

B12: R2E6 anti-HMGB1 (designed binder)
chain: NVSPPRRARVTDATETTITIRWGVAQSQVARFQVDAVPANGQTPIQRTIKRSVHTYTITGLQPGTDYKIYLYTLNDNARSSPVVIDAST
notes: as for B8
- binding result [10]: no binding
- Kd [9]: 189 nM
- koff [9]: 0.000955 s⁻¹
- kon [9]: 5040 M⁻¹ s⁻¹

B13: R2D4 anti-HMGB1 (designed binder)
chain: NVSPPRRARVTDATETTITISWGVAESEVTRFQVDAVPANGQTPIQRTIKRSKHAYTITGLQPGTDYKIYLYTLNDNARSSPVVIDAST
notes: as for B8
- binding result [10]: no binding
- Kd [9]: 159 nM
- koff [9]: 0.000206 s⁻¹
- kon [9]: 1300 M⁻¹ s⁻¹

B14: P2C6 anti-HMGB1 (designed binder)
chain: NVSPPRRARVTDATETTITIRWGVAPSQVIRFQVDAVPANGQTPIQRTIKRSVHAYTITGLQPGTDYKIYLYTLNDNARSSPVVIDAST
notes: as for B8
- Kd [9]: 104 nM
- koff [9]: 0.000991 s⁻¹
- kon [9]: 9540 M⁻¹ s⁻¹

B15: P2F3 anti-HMGB1 (designed binder)
chain: NVSPPRRARVTDATETTITIRWGVPHSFQVDAVPANGQTPIQRTIKRGVRSYTITGLQPGTDYKIYLYTLNDNARSSPVVIDAST
notes: as for B8
- koff [9]: 0.000271 s⁻¹

B16: R1G1 anti-VEGF (designed binder)
chain: NVSPPRRARVTDATETTITIRWAGSPGPVDSFQVDAVPANGQTPIQRTIQTSETGYTITGLQPGTDYKIYLYTLNDNARSSPVVIDAST
- binding result [12]: no binding

B17: TNF-α binder A4A9 (designed binder)
chain: NVSPPRRARVTDATETTITISWYPYYDDCGYYISYFQVDAVPANGQTPIQRTIPDSYSSYTITGLQPGTDYKIYLYTLNDADDGHPYSKPVVIDAST
- binding result [3]: no binding
- binding result [4]: binds

B18: TNF-α binder R4C5 (designed binder)
chain: NVSPPRRARVTDATETTITISWNSSYCHFYGFQVDAVPANGQTPIQRTISDYEYSYTITGLQPGTDYKIYLYTLNASCYGYHYYKPVVIDAST
notes: 14FN3 variant; on phage in phage ELISA, soluble 6xHis-tagged in ELISA; The short label C5 is tied to R4C5 by its name only
- binding result [6]: no binding

B19: R1 D4 anti-VEGF (designed binder)
chain: NVSPPRRARVTDATETTITIPWEVAGGPIISFQVDAVPANGQTPIQRTITPDATGYTITGLQPGTDYKIYLYTLNDNARSSPVVIDAST
notes: 14FN3 variant; on phage in phage ELISA, soluble His-tagged protein in Octet
- koff [13]: 0.00017 s⁻¹
- binding result [12]: no binding

B20: R1 F1 anti-VEGF (designed binder)
chain: NVSPPRRARVTDATETTITIPWALAGGPIISFQVDAVPANGQTPIQRTITPDIRGYTITGLQPGTDYKIYLYTLNDNARSSPVVIDAST
- binding result [12]: no binding

B21: TNF-α binder R4E9 (designed binder)
chain: NVSPPRRARVTDATETTITISWESYYYDCCYYIYYFQVDAVPANGQTPIQRTIYYPYTSYTITGLQPGTDYKIYLYTLNSYGYGYHYYKPVVIDAST
- binding result [3]: no binding
- binding result [4]: binds
